Publication PMC6745501, “Plant photoreceptors and their signaling components compete for COP1 binding via VP peptide motifs” (The EMBO Journal, 2019)
Changes are numbered by the printed parent chain.

Columns and labels:
[1] = biological target: T1, Arabidopsis COP1^349–675 WD40 domain (Arabidopsis, UniProt P43254 349-675); experiment: crystal structure; co-crystals, 5 mg/ml COP1 with 3- to 10-fold molar excess of peptide; 1.25 M sodium malonate pH 7.5; 20°C; conditions: both partners purified
T1 construct: COP1 (CONSTITUTIVELY PHOTOMORPHOGENIC 1) E3 ubiquitin ligase, Arabidopsis, WD40 domain, residues 349-675; also called COP1 WD40 domain; COP1 WD40; not shown: His10, N-terminal, cleaved; Twin-Strep, N-terminal, cleaved
T1 sequence (looked up): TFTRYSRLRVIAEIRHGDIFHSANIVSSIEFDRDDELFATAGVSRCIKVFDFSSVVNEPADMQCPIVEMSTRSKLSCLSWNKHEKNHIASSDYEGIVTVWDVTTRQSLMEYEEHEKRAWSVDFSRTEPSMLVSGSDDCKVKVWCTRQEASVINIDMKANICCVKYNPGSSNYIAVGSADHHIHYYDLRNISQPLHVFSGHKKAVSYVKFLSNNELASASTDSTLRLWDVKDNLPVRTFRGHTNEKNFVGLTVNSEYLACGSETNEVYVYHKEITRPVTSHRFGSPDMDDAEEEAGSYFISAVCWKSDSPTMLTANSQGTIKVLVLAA

[2] = biological target: T1, Arabidopsis COP1^349–675 WD40 domain; experiment: grating-coupled interferometry (GCI); COP1 WD40 amine-coupled (2,000 pg/mm^2), surface passivated with BSA; analyte full-length CRY2 activated by light (highest 14 μM) or CRY2^NC80 (highest 450 μM); 150 mM NaCl, 20 mM HEPES 7.4, 2 mM BME; 25°C; heterogenous ligand model; conditions: both partners purified
[3] = biological target: T2, COP1^349–675,Lys422Ala WD40 domain (Arabidopsis, UniProt P43254 349-675, Lys422Ala); experiment: ITC; VP peptide (titrant, 500-3,000 μM) injected into COP1 WD40 in the cell at about 10-fold lower concentration; 150 mM NaCl, 20 mM HEPES 7.4, 2 mM BME; 25°C; one-site binding model; conditions: both partners purified
T2 construct: COP1, Arabidopsis, WD40 domain, residues 349-675, Lys422Ala; also called COP1^Lys422Ala; not shown: His10, N-terminal, cleaved; Twin-Strep, N-terminal, cleaved
T2 sequence (looked up): T1 sequence (looked up) with K74A

[4] = biological target: T1, Arabidopsis COP1^349–675 WD40 domain; experiment: as above; conditions: both partners purified
[5] = biological target: the molecule itself; experiment: SEC; purified recombinant chimeric UVR8 proteins alone, in the absence of UV-B
[6] = biological target: T1, Arabidopsis COP1^349–675 WD40 domain; experiment: grating-coupled interferometry (GCI); COP1 WD40 amine-coupled to the chip (2,000 pg/mm^2); analyte in 1:3 dilution series from 2 μM (UVR8 forms pre-monomerized by UV-B; HY5); 150 mM NaCl, 20 mM HEPES 7.4, 2 mM BME; 25°C; 1:1 binding model; conditions: both partners purified

B1: HFR1^57–64 VP peptide (peptide, UniProt Q9FE22 57-64, looked up)
peptide: YLQIVPEI
notes: LONG HYPOCOTYL IN FAR-RED 1 (HFR1) transcription factor, residues 57-64; also called HFR1 peptide; LONG HYPOCOTYL IN FAR‐RED 1; source: synthetic peptide (Peptide Specialty Labs GmbH)
binding result [1]: binds

B2: full‐length CRY2 (recombinant) (receptor, Arabidopsis, UniProt Q96524 1-612, looked up)
chain: MKMDKKTIVWFRRDLRIEDNPALAAAAHEGSVFPVFIWCPEEEGQFYPGRASRWWMKQSLAHLSQSLKALGSDLTLIKTHNTISAILDCIRVTGATKVVFNHLYDPVSLVRDHTVKEKLVERGISVQSYNGDLLYEPWEIYCEKGKPFTSFNSYWKKCLDMSIESVMLPPPWRLMPITAAAEAIWACSIEELGLENEAEKPSNALLTRAWSPGWSNADKLLNEFIEKQLIDYAKNSKKVVGNSTSLLSPYLHFGEISVRHVFQCARMKQIIWARDKNSEGEESADLFLRGIGLREYSRYICFNFPFTHEQSLLSHLRFFPWDADVDKFKAWRQGRTGYPLVDAGMRELWATGWMHNRIRVIVSSFAVKFLLLPWKWGMKYFWDTLLDADLECDILGWQYISGSIPDGHELDRLDNPALQGAKYDPEGEYIRQWLPELARLPTEWIHHPWDAPLTVLKASGVELGTNYAKPIVDIDTARELLAKAISRTREAQIMIGAAPDEIVADSFEALGANTIKEPGLCPSVSSNDQQVPSAVRYNGSKRVKPEEEEERDMKKSRGFDERELFSTAESSSSSSVFFVSQSCSLASEGKNLEGIQDSSDQITTSLGKNGCK
notes: cryptochrome 2 (CRY2), Arabidopsis blue-light photoreceptor, full length; not shown: His10, N-terminal, cleaved; Twin-Strep, N-terminal, cleaved
fold increase in binding affinity over the isolated CRY2 VP peptide [2]: ~200 fold

B3: CRY2^NC80 (CRY2^486–565) (domain or fragment, Arabidopsis, UniProt Q96524 486-565, looked up)
chain: SRTREAQIMIGAAPDEIVADSFEALGANTIKEPGLCPSVSSNDQQVPSAVRYNGSKRVKPEEEEERDMKKSRGFDERELF
notes: cryptochrome 2 (CRY2), Arabidopsis, fragment of the C-terminus containing the VP motif (NC80 domain), residues 486-565; also called NC80 domain; not shown: His10, N-terminal, cleaved; Twin-Strep, N-terminal, cleaved
binding result [2]: binds

B4: STO^240–247 VP peptide (peptide, UniProt Q96288 240-247, looked up)
peptide: EHFIVPDL
notes: SALT TOLERANCE (STO/BBX24) transcription factor, residues 240-247; also called STO peptide; SALT TOLERANCE (STO/BBX24); source: synthetic peptide (Peptide Specialty Labs GmbH)
binding result [1]: binds

B5: CO^366–373 VP peptide (peptide, UniProt Q39057 366-373, looked up)
peptide: GYGIVPSF
notes: CONSTANS (CO/BBX1) transcription factor, residues 366-373; also called CO VP peptide; CONSTANS; source: synthetic peptide (Peptide Specialty Labs GmbH)
fold stronger binding than to wild type COP1 [3]: ~4 fold
stoichiometry N [3]: 0.89
stoichiometry N [4]: 1.03

B6: COL3^287–294 VP peptide (peptide, UniProt Q9SK53 287-294, looked up)
peptide: GFGVVPSF
notes: COL3/BBX4 transcription factor, residues 287-294 (holds Phe288); also called COL3 VP peptide; COL3 peptide; source: synthetic peptide (Peptide Specialty Labs GmbH)
stoichiometry N [3]: 0.9
stoichiometry N [4]: 0.75

B7: HYH^27–34 VP peptide (peptide, UniProt Q8W191 27-34, looked up)
peptide: ELLMVPDM
notes: HYH (HY5 homolog) transcription factor, residues 27-34; also called HYH peptide; source: synthetic peptide (Peptide Specialty Labs GmbH)
binding result [1]: binds

B8: UVR8^406–413 VP peptide (peptide, UniProt Q9FN03 406-413, looked up)
peptide: RYAVVPDE
notes: also called UVR8 VP peptide; UVR8 peptide; source: synthetic peptide (Peptide Specialty Labs GmbH)
fold increase in binding affinity against wild type COP1 [3]: ~10 fold
stoichiometry N [3]: 0.87
binding result [4]: binds

B9: UVR8^TRIB1VP chimera (recombinant) (other)
chain: MAEDMAADEVTAPPRKVLIISAGASHSVALLSGDIVCSWGRGEDGQLGHGDAEDRPSPTQLSALDGHQIVSVTCGADHTVAYSQSGMEVYSWGWGDFGRLGHGNSSDLFTPLPIKALHGIRIKQIACGDSHCLAVTMEGEVQSWGRNQNGQLGLGDTEDSLVPQKIQAFEGIRIKMVAAGAEHTAAVTEDGDLYGWGWGRYGNLGLGDRTDRLVPERVTSTGGEKMSMVACGWRHTISVSYSGALYTYGWSKYGQLGHGDLEDHLIPHKLEALSNSFISQISGGWRHTMALTSDGKLYGWGWNKFGQVGVGNNLDQCSPVQVRFPDDQKVVQVSCGWRHTLAVTERNNVFAWGRGTNGQLGIGESVDRNFPKIIEALSVDGASGQHIESSNIDPSSGKSWVSPAESDQIVPEY
stoichiometry N [5]: 2

B10: UVR8^HY5VP chimera (recombinant) (other)
chain: MAEDMAADEVTAPPRKVLIISAGASHSVALLSGDIVCSWGRGEDGQLGHGDAEDRPSPTQLSALDGHQIVSVTCGADHTVAYSQSGMEVYSWGWGDFGRLGHGNSSDLFTPLPIKALHGIRIKQIACGDSHCLAVTMEGEVQSWGRNQNGQLGLGDTEDSLVPQKIQAFEGIRIKMVAAGAEHTAAVTEDGDLYGWGWGRYGNLGLGDRTDRLVPERVTSTGGEKMSMVACGWRHTISVSYSGALYTYGWSKYGQLGHGDLEDHLIPHKLEALSNSFISQISGGWRHTMALTSDGKLYGWGWNKFGQVGVGNNLDQCSPVQVRFPDDQKVVQVSCGWRHTLAVTERNNVFAWGRGTNGQLGIGESVDRNFPKIIEALSVDGASGQHIESSNIDPSSGKSWVSPAEEIRRVPEFTGLTDGSSKGNGGDISVPQTDVKRVRI
stoichiometry N [5]: 2

B11: CRY1^544–552 VP peptide (peptide, UniProt Q43125 544-552, looked up)
peptide: EDQMVPSIT
notes: cryptochrome 1 (CRY1), Arabidopsis blue-light photoreceptor, residues 544-552 (holds Asp545); also called CRY1 VP peptide; CRY1 peptide; source: synthetic peptide (Peptide Specialty Labs GmbH)
stoichiometry N [3]: 0.98
stoichiometry N [4]: 0.99

B12: full‐length HY5 protein (recombinant) (natural protein, Arabidopsis, UniProt O24646 1-168, looked up)
chain: MQEQATSSLAASSLPSSSERSSSSAPHLEIKEGIESDEEIRRVPEFGGEAVGKETSGRESGSATGQERTQATVGESQRKRGRTPAEKENKRLKRLLRNRVSAQQARERKKAYLSELENRVKDLENKNSELEERLSTLQNENQMLRHILKNTTGNKRGGGGGSNADASL
notes: ELONGATED HYPOCOTYL 5 (HY5) bZIP transcription factor, full length; not shown: His10, N-terminal, cleaved; Twin-Strep, N-terminal, cleaved
Kd [6]: ~1 µM

B13: CRY2^527–535 VP peptide (peptide, UniProt Q96524 527-535, looked up)
peptide: NDQQVPSAV
notes: also called CRY2 VP peptide; source: synthetic peptide (Peptide Specialty Labs GmbH)
fold reduction of binding against wild type COP1 [3]: ~30 fold
stoichiometry N [4]: 1.04
